Results: patent US20220267417A1 (UNIVERSIT GRENOBLE ALPES, published 2022)

T1: OprF protein of Pseudomonas aeruginosa on bacteria of the CHA strain (Pseudomonas aeruginosa, UniProt P13794 25-350)
T1 sequence (looked up): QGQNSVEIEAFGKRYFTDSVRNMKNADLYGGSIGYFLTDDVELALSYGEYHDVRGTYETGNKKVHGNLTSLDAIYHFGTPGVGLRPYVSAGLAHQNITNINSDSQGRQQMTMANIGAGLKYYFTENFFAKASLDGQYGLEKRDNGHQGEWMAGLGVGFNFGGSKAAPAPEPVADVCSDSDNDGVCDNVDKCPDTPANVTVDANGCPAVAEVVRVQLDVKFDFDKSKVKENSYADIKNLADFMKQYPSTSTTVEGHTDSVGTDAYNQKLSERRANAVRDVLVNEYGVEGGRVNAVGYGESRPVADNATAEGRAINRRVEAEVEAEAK

T2: OprF protein of Pseudomonas aeruginosa with N-terminal polyhistidine tag, in proteoliposomes (Pseudomonas aeruginosa, UniProt P13794 25-350, limits assumed)
T2 construct: Made by cell-free synthesis (E. coli lysate) in the presence of liposomes; inserted in the liposomal membrane, found oligomerized, in open and closed channel conformations; Genbank AFM37279.1 is printed for OprF in general; The sense primer starts at the ATG of the gene, so the signal peptide may be part of the construct; also called porin OprF; OprF membrane antigen; not shown: N-terminal …
T2 sequence (looked up): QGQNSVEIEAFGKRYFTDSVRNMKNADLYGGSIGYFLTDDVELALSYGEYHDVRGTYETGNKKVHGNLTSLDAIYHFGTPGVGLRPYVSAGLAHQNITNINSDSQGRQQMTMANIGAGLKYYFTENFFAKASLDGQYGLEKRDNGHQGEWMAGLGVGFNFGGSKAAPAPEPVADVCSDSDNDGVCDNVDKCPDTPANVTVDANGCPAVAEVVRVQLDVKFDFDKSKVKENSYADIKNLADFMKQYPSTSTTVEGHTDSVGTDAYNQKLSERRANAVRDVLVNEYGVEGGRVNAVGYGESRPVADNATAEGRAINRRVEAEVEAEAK


Columns and labels:
[1] = target: T1, OprF protein of Pseudomonas aeruginosa …; assay: cell-based or functional assay
[2] = target: T2, OprF protein of Pseudomonas aeruginosa …; assay: ELISA on coated OprF proteoliposomes, anti-c-myc-peroxidase detection, one site-specific binding fit
Protocol: By way of example, the dissociation constant Kd is determined for the scFv fragments E7, F8, F10 and G9, with an ELISA method.
For this purpose, 100 μl of OprF proteoliposomes (containing an OprF concentration of 1 μg/ml) contained in fixation buffer (0.1 M sodium carbonate, 0.1 M sodium bicarbonate) are fixed at the bottom of the wells of a 96-well plate (Thermo Scientific®) overnight at 4° C. and under stirring. The wells are then blocked for 1 h at 21° C. with 100 μl of TBS Tween (TBST) buffer containing 5% milk. After washing the wells with 100 μl of TBST buffer, 100 μl of scFv fragment (E7, F8, F10 or G9), at 1:50; 1:200; 1:400; 1:800; 1:1600 and 1:3200 dilutions in TBST buffer, are added to the corresponding wells and incubated for 1 h at 37° C. under stirring. After washing the wells, 100 μl of anti-c-myc-Peroxidase antibody (Roche) (1:10000 dilution in TBST buffer containing 5% milk) is added to the wells and incubated for 1 h at 37° C. under stirring. After washing the wells 3 times, 50 μl of TMB is added to the wells and the plate is incubated at ambient temperature and protected from light for approximately 15 min. 50 μl of 1 M HCl is then added and the absorbance of each well is measured at 450 nm. These absorbance data are then analyzed using the GraphPad Prism software (non-linear regression analysis, “one site-specific binding” equation) in order to calculate the dissociation constant Kd of each scFv fragment tested. By way of comparison, a measurement is also made on the buffer only.

Binder	cytotoxicity of P. aeruginosa towards macrophages (LDH release, A490-A680 nm) [1]	Kd [2] [nM]
scFv fragment F8 (scFv, Macaque scFv, format VH-(G4S)3-VL-6xHis-c-myc) scFv: QVQLEQSGAEVKQPGASVKVSCKASGYSFSSYGMNWVRQAPGQRPEWLGWINADTGKSTYAPGFKERFTFSLDTSVSTAYLTISSLKAEDTAVYYCVRSCRGGVCQLYHWGQGVLITVSSGGGGSGGGGSGGGGSEIELTQSPTSIAVSRGERVTVSCMASSSVRTGYLHWYQQKPGFPPRLLVYGTSSLPSGVPARFSGSGSGTSYTLTISSVEPEDVAHYYCQQGHTIPLTFGGGTKVEIKHHHHHHEQKLISEEDL	~0.67 fraction of cytotoxicity reduced	211
scFv fragment F10 (scFv, Macaque scFv, format VH-(G4S)3-VL-6xHis-c-myc) scFv: QVQLEQSGAEVKQPGASVKVSCKASGYSFNTYGMNWVRQAPGQRPEWMGWINADTGKSTYAPGFKERFTFSLDTSVSTAYLTISSLKAEDTAVYFCVRSCRGGVCQLYHWGQGVLVTVSSGGGGSGGGGSGGGGSDIELTQSPTSMAVSQGERVTISCTASSSVSTNYLHWYQQKPGFPPRLLVYRTSSLAPGVPARFSGSGSGTSYTLTISNMEAEDAAHYYCQQGNTIPLTFGGGTKVEIKHHHHHHEQKLISEEDL	–	1490
scFv fragment G9 (scFv, Macaque scFv, format VH-(G4S)3-VL-6xHis-c-myc) scFv: QVQLEQSGAEVKHPGASVKVSCKASGYSFSTYGMNWVRQAPGQRPEWMGWINADTGKSTYAPGFKERFTFSLDTSVSTAYLTISSLKAEDTAVYYCVRSCRGGVCQLYHWGQGVLITVSSGGGGSGGGGSGGGGSELQMTQSPTSMAVSQGERVTISCTASSSVNTNYLHWYQQKPGFPPRLLVYGTSSLVAGVPARFSGSGSGTSYTLTISNMEAEDAANYYCQQGNTIPLTFGGGTKVEIKHHHHHHEQKLISEEDL	~0.67 fraction of cytotoxicity reduced	295
scFv fragment E7 (scFv, Macaque scFv, format VH-(G4S)3-VL-6xHis-c-myc) scFv: QVQLEQSGAEVKQPGASVKVSCKASGYSFSSYGMNWVRQAPGQRPEWMGWINADTGKSTYAPGFKERFTFSLDTSVSTAYLTISSLKAEDTAVYYCVRSCRGGVCQLYHWGQGVLITVSSGGGGSGGGGSGGGGSDIELTQSPTSIAVSQGERVTISCTASSSVTTGYFHWYQQKPGFPPRLLVYGTSSLPSGVPARFSGSGSGTSYTLTISNMEAEDAAHYYCQQGHTIPLTFGGGTKVEIKHHHHHHEQKLISEEDL	~0.67 fraction of cytotoxicity reduced	213
